# The supplement of paper PMC10266784
# B1: library; numbered along this chain (parent)
# chain: MAAAAAAAAEQQSSNGPVKKSMREKAVERRSVNKEHNSNFKAGYIPIDEDRLHKTGLRGRKGNLAICVIILLFILAVINLIITLVIWAVIRIGPNGCDSMEFHESGLLRFKQVSDMGVIHPLYKSTVGGRRNENLVITGNNQPIVFQQGTTKLSVENNKTSITSDIGMQFFDPRTQNILFSTDYETHEFHLPSGVKSLNVQKASTERITSNATSDLNIKVDGRAIVRGNEGVFIMGKTIEFHMGGNMELKAENSIILNGSVMVSTTRLPSSSSGDQLGSGDWVRYKLCMCADGTLFKVQVTSQNMGCQISDNPCGNTH
# Variants of: B1
# Assay: SGCB cell-surface expression functional score (HA stain, bin4 vs bin1, normalised to synonymous) (log10 ratio); higher = more cell-surface SGCB (functional)
# Summary of the method: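 Human beta-sarcoglycan, tagged with HA and fused to YFP, was built into codon-saturation libraries and delivered by lentivirus at MOI <0.1 into HEK293 cells that stably express alpha-, gamma- and delta-sarcoglycan. After 72 hours, YFP-positive cells were sorted and grown for 5–7 days, then stained on ice with Alexa Fluor 647 anti-HA, fixed, sorted into four 5% intensity bins and amplicon-sequenced. Each variant's functional score is the log ratio of its frequency in the highest bin to that in the lowest bin, taken as the median across codons and transductions. Transductions were done in duplicate, and synonymous variants were scaled per section to mean 0, SD 0.5.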
row,Variant,SGCB cell-surface expression functional score (log10)
1,D172H,0.44
2,D172V,0.26
3,D172W,-0.88
4,D172A,0.03
5,D172M,0.46
6,D172F,-0.3
7,D172K,-0.36
8,D172C,0.95
9,D172S,0.68
10,D172R,-0.58
11,D172T,0.25
12,D172G,0.2
13,D172Q,-0.19
14,D172N,-0.02
15,D172L,0.77
16,D172P,-1.12
17,D172Y,-0.12
18,D172E,0.42
19,D172I,-1.04
20,L179R,0.67
21,L179V,-0.27
22,L179T,-1.12
23,L179S,-1.32
24,L179Q,-0.03

row,Variant,SGCB cell-surface expression functional score (log10)
1,L179K,0.28
2,L179N,-1.22
3,L179W,1.37
4,L179Y,-0.54
5,L179G,-0.53
6,L179P,-0.55
7,L179E,-1.07
8,L179A,0.06
9,L179H,-1.99
10,L179I,-0.73
11,L179F,0.08
12,L179D,-1.87
13,L179M,-1.01
14,N177F,-0.18
15,N177I,0.12
16,N177R,0.42
17,N177Q,1.3
18,N177A,0.49
19,N177P,-1.5
20,N177V,0.4
21,N177G,0.05
22,N177Y,0.11
23,N177M,-0.24
24,N177C,0.09

row,Variant,SGCB cell-surface expression functional score (log10)
1,N177K,-0.45
2,N177W,-0.44
3,N177D,0.12
4,N177H,0.09
5,N177L,0.29
6,N177E,0.19
7,N177S,0.02
8,N177T,0.39
9,I178M,-0.88
10,I178Y,-1.19
11,I178E,-2.31
12,I178C,-0.6
13,I178A,-1.66
14,I178F,-0.92
15,I178K,-0.57
16,I178L,0.3
17,I178R,-0.26
18,I178G,-0.44
19,I178P,0.29
20,I178H,-0.39
21,I178N,-0.4
22,I178D,-0.82
23,I178W,-1.15
24,I178Q,-0.75

row,Variant,SGCB cell-surface expression functional score (log10)
1,I178S,-1.13
2,I178V,0.68
3,I178T,-0.41
4,F171Y,0.03
5,Q176G,0.46
6,Q176K,-0.32
7,Q176F,-0.66
8,Q176T,-0.34
9,Q176A,0.1
10,Q176P,-0.31
11,Q176W,-0.21
12,Q176L,-0.17
13,Q176S,-0.24
14,Q176R,0.16
15,Q176H,-0.38
16,Q176Y,-0.78
17,Q176N,0.38
18,Q176M,-0.21
19,Q176E,0.27
20,Q176V,-0.31
21,Q176C,1.06
22,Q176I,-0.61
23,Q176D,0.07
24,R174L,0.05

row,Variant,SGCB cell-surface expression functional score (log10)
1,R174C,-0.43
2,R174T,0.3
3,R174D,-0.81
4,R174V,-0.32
5,R174M,0.09
6,R174P,-0.77
7,R174W,-0.75
8,R174S,-0.45
9,R174N,-1.48
10,R174Y,-0.17
11,R174H,-0.58
12,R174A,0.02
13,R174F,-0.97
14,R174I,-0.15
15,R174K,0.08
16,R174E,-0.22
17,R174G,-0.63
18,R174Q,-1.07
19,E185D,0.34
20,E185R,-0.63
21,E185G,-0.26
22,E185S,0.53
23,E185T,-1.1
24,E185H,-1.02

row,Variant,SGCB cell-surface expression functional score (log10)
1,E185K,-0.01
2,E185Y,0.02
3,E185L,-0.11
4,E185W,-0.87
5,E185M,-1.36
6,E185F,-0.44
7,E185C,0.41
8,E185N,-0.3
9,E185V,-0.42
10,E185Q,-0.17
11,E185I,-0.23
12,E185A,0.2
13,E185P,0.33
14,P173N,-0.77
15,P173R,-0.47
16,P173S,0.5
17,P173H,0.19
18,P173W,-1.02
19,P173K,-0.93
20,P173A,-0.38
21,P173E,0
22,P173Y,-0.68
23,P173G,-0.17
24,P173L,-0.21

row,Variant,SGCB cell-surface expression functional score (log10)
1,P173D,-0.84
2,P173T,-0.17
3,P173Q,0.62
4,P173V,0.67
5,P173F,-0.34
6,P173I,-0.68
7,P173M,0
8,P173C,-0.22
9,T182R,-1.25
10,T182P,-1.25
11,T182M,-1.87
12,T182V,-1.47
13,T182Y,-2.23
14,T182I,-1
15,T182E,-1.6
16,T182D,-2.4
17,T182N,-1.25
18,T182C,-2.09
19,T182L,-1.43
20,T182G,-1.06
21,T182H,-1.44
22,T182K,-0.75
23,T182W,-1.65
24,T182S,-1.55

row,Variant,SGCB cell-surface expression functional score (log10)
1,T182A,-1.25
2,T182Q,-1.49
3,T182F,-2.63
4,E188K,-0.62
5,E188R,-0.8
6,E188G,-0.55
7,E188T,-0.38
8,E188H,-0.17
9,E188Y,-1.16
10,E188W,-0.68
11,E188A,-1.13
12,E188V,-0.11
13,E188M,-2.13
14,E188S,-0.61
15,E188C,-1.07
16,E188Q,0.29
17,E188L,-1.16
18,E188P,-0.15
19,E188D,-0.04
20,E188F,-1.65
21,E188I,-1.93
22,E188N,-0.55
23,T186H,0.62
24,T186I,0.3

row,Variant,SGCB cell-surface expression functional score (log10)
1,T186V,-0.85
2,T186E,0.13
3,T186S,-0.18
4,T186C,-0.92
5,T186L,-0.15
6,T186Y,0.08
7,T186R,0.06
8,T186G,-0.44
9,T186K,0.28
10,T186A,0.54
11,T186F,-0.05
12,T186Q,0.7
13,T186D,0.53
14,T186P,-1.73
15,T186M,-1.55
16,T186W,-1.12
17,T186N,-0.55
18,D183A,1.15
19,D183G,-1.31
20,D183V,-0.86
21,D183W,0.54
22,D183N,-0.15
23,D183T,-0.79
24,D183C,-1.17

row,Variant,SGCB cell-surface expression functional score (log10)
1,D183M,-0.83
2,D183K,-0.36
3,D183H,-0.33
4,D183E,0.35
5,D183I,-1.89
6,D183F,-1.63
7,D183Y,-0.53
8,D183Q,-0.56
9,D183P,-1.43
10,D183S,-0.22
11,D183L,-0.71
12,D183R,-0.21
13,Y184M,-1.01
14,Y184I,-1.85
15,Y184H,-0.69
16,Y184R,-1.19
17,Y184F,0.26
18,Y184D,-0.8
19,Y184T,-1.17
20,Y184C,-0.8
21,Y184Q,-0.78
22,Y184L,-1.63
23,Y184A,-0.95
24,Y184N,-1.22

row,Variant,SGCB cell-surface expression functional score (log10)
1,Y184V,-2.52
2,Y184P,-0.93
3,Y184E,-0.73
4,Y184S,-1.04
5,Y184G,-1.39
6,Y184K,-1.77
7,T175W,1.12
8,T175A,0.26
9,T175L,0.08
10,T175K,-0.54
11,T175M,-0.5
12,T175D,-0.47
13,T175G,0.14
14,T175S,-0.04
15,T175F,0.17
16,T175V,-0.16
17,T175N,-0.16
18,T175R,0.24
19,T175C,-0.43
20,T175Y,0.07
21,T175Q,1.26
22,T175E,-0.42
23,T175I,-0.13
24,T175P,-1.3

row,Variant,SGCB cell-surface expression functional score (log10)
1,T175H,0.32
2,F189C,-1.67
3,F189L,-0.46
4,F189D,-1.52
5,F189N,-2.42
6,F189I,-1.15
7,F189A,-0.91
8,F189E,-1.49
9,F189M,-0.25
10,F189P,-0.39
11,F189Q,-1.04
12,F189G,-1.93
13,F189K,-2.58
14,F189H,-1.03
15,F180C,-1.87
16,F180V,-2.01
17,F180Y,-1.77
18,F180K,-1.78
19,F180M,-1.82
20,F180E,-1.03
21,F180I,-1.72
22,F180L,-0.42
23,F180R,-1.76
24,F180T,-1.29

row,Variant,SGCB cell-surface expression functional score (log10)
1,F180H,-2.25
2,F180D,-1.86
3,F180Q,-1.66
4,F180N,-2.28
5,F180P,-1.31
6,F180S,-1.41
7,F180G,-1.85
8,F180A,-2.1
9,H187E,0.18
10,H187V,0.03
11,H187P,-1.29
12,H187T,-1.03
13,H187W,0.48
14,H187D,0.45
15,H187Q,-0.38
16,H187G,-1.69
17,H187N,-0.57
18,H187L,-1.47
19,H187S,-0.12
20,H187K,-0.37
21,H187F,-0.63
22,H187I,-0.51
23,H187R,-0.76
24,H187Y,-0.18

row,Variant,SGCB cell-surface expression functional score (log10)
1,H187M,-0.22
2,H187C,0.07
3,H187A,-0.81
4,S181Q,-1.57
5,S181E,-1.4
6,S181H,-1.65
7,S181N,-1
8,S181R,-0.87
9,S181T,-0.51
10,S181M,0.13
11,S181K,-1.64
12,S181V,-1.52
13,S181W,-1.97
14,S181A,0.2
15,S181D,-0.41
16,S181I,-1.25
17,S181L,-1.37
18,S181F,-1.53
19,S181G,-0.94
20,S181P,-1.69
21,S181C,-0.89
22,S181Y,-1.76
